Experimental data from patent US20200399381A1 (I MAB BIOPHARMA US, published 2020).
Changes are numbered by the printed parent chain. Blank lines part the entries; values can stand above or below the binder they belong to.

Tests used:
human IFNAR-1 on cells = target: T1, human IFNAR-1 on cells (human, UniProt P17181 28-557); experiment: cell-based or functional assay
T1 sequence (looked up): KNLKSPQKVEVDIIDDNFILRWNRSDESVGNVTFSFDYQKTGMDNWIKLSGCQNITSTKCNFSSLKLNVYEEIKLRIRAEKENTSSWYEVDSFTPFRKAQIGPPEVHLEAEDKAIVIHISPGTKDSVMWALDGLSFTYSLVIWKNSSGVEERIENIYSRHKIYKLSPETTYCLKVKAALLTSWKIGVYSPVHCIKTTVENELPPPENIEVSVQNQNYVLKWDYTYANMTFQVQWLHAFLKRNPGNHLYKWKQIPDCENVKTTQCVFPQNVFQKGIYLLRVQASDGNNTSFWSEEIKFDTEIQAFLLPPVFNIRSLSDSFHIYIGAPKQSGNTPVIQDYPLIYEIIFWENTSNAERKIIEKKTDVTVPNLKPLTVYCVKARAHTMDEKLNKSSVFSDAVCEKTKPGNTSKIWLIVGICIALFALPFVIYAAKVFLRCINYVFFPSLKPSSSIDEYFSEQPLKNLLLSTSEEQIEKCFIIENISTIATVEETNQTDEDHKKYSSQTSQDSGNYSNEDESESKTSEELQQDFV

[1] = target: T2, recombinant His-tagged human IFNAR-1-ECD protein (human, UniProt P17181 28-436); experiment: ELISA, coated His-tagged IFNAR-1
T2 construct: extracellular domain; the Biacore text says His-tagged human IFNAR-1-ECD; also called His-tagged IFNAR-1; hIFNAR-1 protein; not shown: His tag
T2 sequence (looked up): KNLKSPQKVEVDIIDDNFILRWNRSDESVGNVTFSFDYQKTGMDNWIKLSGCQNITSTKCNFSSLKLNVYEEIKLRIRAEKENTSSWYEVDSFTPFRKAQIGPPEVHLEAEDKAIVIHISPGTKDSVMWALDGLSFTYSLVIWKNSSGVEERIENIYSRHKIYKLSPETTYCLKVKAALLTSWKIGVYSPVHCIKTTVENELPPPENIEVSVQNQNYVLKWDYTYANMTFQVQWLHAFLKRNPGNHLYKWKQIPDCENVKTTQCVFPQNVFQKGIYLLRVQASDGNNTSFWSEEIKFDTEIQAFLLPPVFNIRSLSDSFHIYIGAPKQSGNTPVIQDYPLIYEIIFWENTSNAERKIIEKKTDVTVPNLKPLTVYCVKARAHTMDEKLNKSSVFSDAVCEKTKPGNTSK
Procedure: This example tested the binding properties of the anti-IFNAR-1 mouse antibodies to the human IFNAR-1 proteins by ELISA assay. In short, His-tagged IFNAR-1 was coated at 0.5 μg/ml overnight and then blocked by 5% BSA in PBS. Serial diluted anti-IFNAR-1 antibodies were incubated with the coated antigen for 1 h at room temperature. The resulting plates were washed with PBS/T and incubated with goat anti-mouse IgG-HRP for 1 h at room temperature. The plates were developed with TMB substrate and analyzed by spectrophotometer at OD 450-630 nm.

[2] = target: T3, human IFNAR-1 protein (form not stated) (human, UniProt P17181 28-436, limits assumed); experiment: affinity ranking of expressed humanized 485G10 IgGs (method not named)
T3 construct: bispecific ELISA
T3 sequence (looked up): T2 sequence (looked up)

[3] = target: T3, human IFNAR-1 protein (form not stated); experiment: affinity measurement of purified IgG at different concentrations (method not named)

EC50 (nM), inhibition of IFNα2b-induced SEAP reporter in HEK-Blue IFNα/β cells (human IFNAR-1 on cells): 0.161 nM | EC50 [1]: 0.028 nM
B5: 487E3 (antibody, V domains shown)
VH: EVQLQQSGAELVKPGASVKLSCSASGFNIKDCYIHWVKQRTEQGLEWIGRIDPEDGETKYAPKFQAKATITADTSSNTAYLQLNSLTSEDTAVYYCARHCNFLYFDYWGQGSTLTVS
VL: DIVMTQSQKSMSTSLGDRVTVTCKASQNVGTIVAWYQLKPGQSPKTLIYSASYRSSGVPDRFTGSGSGTDFTLTISNVQSEDLAEYFCQQYNNYPVIFGSGTKLEIR
notes: Hybridoma-derived monoclonal antibody

EC50 (nM), inhibition of IFNα2b-induced SEAP reporter in HEK-Blue IFNα/β cells (human IFNAR-1 on cells): 0.824 nM | EC50 [1]: 0.054 nM
B9: 392D6 (antibody, V domains shown)
VH: AVQLQQSGTELVKPGASVKLSCSASGFNIKDYYVHWVKQKTEQGLEWIGRIDPEDGETKYAPKFQGKATVTADTSSNTAYMQLSSLTSEDTAVYYCTRFGGLDAMDYWGQGTSVTVSS
VL: DIVMTQSQKFMSTSVGDRVSVTCKASQNVGTNVAWYQQKPGQSPKPLIYSTSYRYNGVPDRFTGSGSGTEFTLTISNVQSEDLAEYFCQQFNRYPYTFGGGTKLEIK
notes: as for B5

EC50 (nM), inhibition of IFNα2b-induced SEAP reporter in HEK-Blue IFNα/β cells (human IFNAR-1 on cells): 0.286 nM | EC50 [1]: 0.015 nM
B10: 485G10 (antibody, V domains shown)
VH: EVQLQQSGAELVKPGASVKLSCTGSGFNIKDYYIHWVKQRTEQGLEWIGRIDPEDGETKYAPKFQGKATITADTSSNTAYLQLSSLTSEDTVVYYCGRYHGYWALDYWGQGTSVTVSS
VL: B9 VL with A25T, N56S, E70D, T74I, Q89H, F91Y, N92F, R93S, K103L
notes: Hybridoma-derived monoclonal antibody; also called mouse antibody 485G10

EC50 (nM), inhibition of IFNα2b-induced SEAP reporter in HEK-Blue IFNα/β cells (human IFNAR-1 on cells): 1.3 nM | EC50 [1]: 0.733 nM
B13: 430H6 (antibody, V domains shown)
VH: QVTLKESGPGILQPSQTLSLTCTFSGFSLNTYGMGVGWIRQPSGKGLEWLANIWWDDDKYYNPSLKNRLTISKDTSNNQAFLKITNVDTADTATYFCARHPLPGYKDNYVVDAWGQGASVTVSS
VL: DVVLTQTPGSLSVTLGDQASISCRSSQSLEYSDQYTYLEWYLQKSGQSPQLLIYGVSNRFSGVPDRFIGSGSGTDFTLKISRVEPEDLGVYYCFQATHDPYTFGAGTKLELK
notes: as for B5

Kd [2]: 0.652 nM | koff [2]: 0.000201 s⁻¹ | kon [2]: 308000 M⁻¹ s⁻¹ | Kd [3]: 1.55 nM | koff [3]: 0.000321 s⁻¹ | kon [3]: 207000 M⁻¹ s⁻¹
B15: 485G10-H1L2 (antibody, V domains shown)
VH: QVQLVQSGAEVKKPGASVKVSCKASGFNIKDYYIHWVRQAPGQGLEWMGRIDPEDAETKYAPKFQGRVTMTADTSISTAYMELSRLRSDDTVVYYCARYHGYWALDYWGQGTLVTVSS
VL: DIQMTQSPSSLSTSVGDRVTITCKTSQNVGTNVAWYQQKPGKAPKPLIYSTSYRYSGVPSRFSGSGSGTDFTLTISSLQPEDFATYYCHQYFSYPYTFGPGTKVDIK
notes: Humanized IgG expressed in HEK293; also called VH1 + VL2 (485G10)

Kd [2]: 0.66 nM | koff [2]: 0.000216 s⁻¹ | kon [2]: 327000 M⁻¹ s⁻¹ | Kd [3]: 1.32 nM | koff [3]: 0.000259 s⁻¹ | kon [3]: 196000 M⁻¹ s⁻¹
B16: 485G10-H1L4 (antibody, V domains shown)
VH: B15 VH
VL: B15 VL with I21V, L78V, V104L
notes: Humanized IgG expressed in HEK293; also called VH1 + VL4 (485G10)

EC50 (nM), inhibition of IFNα2b-induced SEAP reporter in HEK-Blue IFNα/β cells (human IFNAR-1 on cells): 1.27 nM | EC50 [1]: 0.137 nM
B17: 402G3 (antibody, V domains shown)
VH: QVQLQQSGAELVKPGSSVKISCKASGFTFTSHFIHWIKQQPGNGLKWIGWIYPGDDDTEYNHKFNGKATLTADKSSSTAYMHLSSLTSEDSAVYFCARRVEYYNGGFAYWGQGTLVTVSS
VL: DVQMTQSPSYLAAPPGESVSISCKASKNIRNNLGWYQERPGKTPNLLIHSGSTLQSGAPSRFSGGGSGTDFTLTIRSLESEDSAVYYCQQYDQYPLTFGSGTKLEIK
notes: as for B5

Second part, the binder before the results:

B1: 260H8 (antibody, V domains shown)
VH: EVQLQESGPGLAKPSQTLSLTCSVTGYSITSDYWNWIRKFPGNKLEYMGYISYSGSIYYNPSLKSRISITRDTSKNQYYLQLNSVTNEDTATYYCARSGGMYYFDYWGQGTTLTVSS
VL: DIQMTQSPASLSASVGETVTITCRASGNIHNYLAWYQQKQGKSPQLLVYNAKTLEDGVPSRFSGSGSGTQYSLKINSLQPEDFGSYYCQHFWSIPPTFGSGTKLEIK
notes: as for B5
EC50 (nM), inhibition of IFNα2b-induced SEAP reporter in HEK-Blue IFNα/β cells (human IFNAR-1 on cells): 5.07 nM | EC50 [1]: 0.055 nM

B2: 269A7 (antibody, V domains shown)
VH: B1 VH with S56T
VL: B1 VL
notes: as for B5
EC50 (nM), inhibition of IFNα2b-induced SEAP reporter in HEK-Blue IFNα/β cells (human IFNAR-1 on cells): 6.71 nM | EC50 [1]: 0.476 nM

B3: 268E9 (antibody, V domains shown)
VH: B1 VH with D72A
VL: B1 VL
notes: as for B5
EC50 (nM), inhibition of IFNα2b-induced SEAP reporter in HEK-Blue IFNα/β cells (human IFNAR-1 on cells): 3.87 nM | EC50 [1]: 0.088 nM

B4: 293H10 (antibody, V domains shown)
VH: B1 VH with S56N, I57T, Y58D, I67F, Y78F, N87T, G99E, Y103F
VL: B1 VL with T20S, Q37H, E55A, I94T
notes: as for B5
EC50 (nM), inhibition of IFNα2b-induced SEAP reporter in HEK-Blue IFNα/β cells (human IFNAR-1 on cells): 1.28 nM | EC50 [1]: 0.097 nM

B6: 106A7 (antibody, V domains shown)
VH: EVQLQQSGADLVKPGASVKLSCTTSGFNIKDYYMHWVNQRTEQGLEWIGRIDPEDGETKYAPKFQGKATITADTSSNTAYLQLSSLTSEDTAVYYCARDWGHSFDYWGQGTTLTVSS
VL: DIVMTQSQKFMSTSVGDRVSVTCKASQNVGTTVAWYQQKPGQSPKTLIYSASYRYSGVPDRFTGSGSGTDFTLTISNVQSEDLAEYFCQQYNSYTFGGGTKLEMK
notes: as for B5
EC50 (nM), inhibition of IFNα2b-induced SEAP reporter in HEK-Blue IFNα/β cells (human IFNAR-1 on cells): 3.52 nM | EC50 [1]: 0.099 nM

B7: 370E5 (antibody, V domains shown)
VH: B10 VH with G24A, V92A, G97A, Y99F, H100G, Y102L, W103T, L105M
VL: B9 VL with P46A, S50A, N56S, E70D, F91Y, R93N
notes: as for B5
EC50 (nM), inhibition of IFNα2b-induced SEAP reporter in HEK-Blue IFNα/β cells (human IFNAR-1 on cells): 2.17 nM | EC50 [1]: 0.052 nM

B8: 107E12 (antibody, V domains shown)
VH: EVQLQQSGAEFVKPGASVKLSCTASGFNIKDYYIHWVTQKTEQGLEWIGRIDPEDGETKYAPKFQDKATITADSSSNTAYLQLSSLTSVDTAVYFCSREGSFTGWFPYWGQGTLVSVSA
VL: B9 VL with S26R, N28S, N32Y, P46A, E70D, E85D, F91Y, N92H, R93S
notes: as for B5
EC50 (nM), inhibition of IFNα2b-induced SEAP reporter in HEK-Blue IFNα/β cells (human IFNAR-1 on cells): 1.21 nM | EC50 [1]: 0.075 nM

B11: 104A3 (antibody, V domains shown)
VH: EVQLQQSGAELVKPGASVKVSCTGSGFNIKDYYIHWVKQRTEQGLEWIGRIDPEDGETKYAPKFQGKATITSDTSSNTAYLQLSSLTSGDTAVYFCARYDGYYCFDYWGQGTTLTVSS
VL: B9 VL with N56S, E70D, E81A, E85A, F91Y, R93N, K103R
notes: as for B5
EC50 (nM), inhibition of IFNα2b-induced SEAP reporter in HEK-Blue IFNα/β cells (human IFNAR-1 on cells): 1.31 nM | EC50 [1]: 0.056 nM

B12: 124D12 (antibody, V domains shown)
VH: B11 VH with K67R, F95Y
VL: B9 VL with N56S, E70D, E81A, E85A, F91Y, R93N, K103R
notes: as for B5
EC50 (nM), inhibition of IFNα2b-induced SEAP reporter in HEK-Blue IFNα/β cells (human IFNAR-1 on cells): 0.981 nM | EC50 [1]: 0.062 nM

B14: 485G10-H1L3 (antibody, V domains shown)
VH: B15 VH
VL: B15 VL with L78V, V104L
notes: Humanized IgG expressed in HEK293; also called VH1 + VL3 (485G10)
Kd [2]: 0.325 nM | koff [2]: 0.000101 s⁻¹ | kon [2]: 311000 M⁻¹ s⁻¹ | Kd [3]: 1.24 nM | koff [3]: 0.000232 s⁻¹ | kon [3]: 187000 M⁻¹ s⁻¹
